Reference: patent US20210380680A1 (ZLLP, published 2021)
Where two headings read alike, the source gives them in different places.

Tests used:
[1] = target: T1, human Claudin 18.2 (CLDN18.2) (human, UniProt P56856-2 1-261); experiment: FACS on CHO-CLDN18.2 cells
T1 construct: whole, on cells; recombinantly expressed on CHO, HEK293, NCI-N87, NUGC4 or PANC-1 cells; also called CHO-CLDN18.2

[2] = target: T1, human Claudin 18.2 (CLDN18.2); experiment: cell-based or functional assay
[3] = target: T1, human Claudin 18.2 (CLDN18.2); experiment: cell-based or functional assay; remark: listed apart in the source
[4] = target: T1, human Claudin 18.2 (CLDN18.2); experiment: FACS on CHO-CLDN18.2 cells; remark: listed apart in the source

EC50 [1] [nM]	Binder	also measured
4.38	364D1A7-H4L5 (antibody, V domains shown, humanized IgG; constant regions not specified) VH: DVQLVESGGGLVQPGGSLRLSCAASGFTFSSFGMHWVRQAPGKGLEWVAYISSGSGSIYYADTVKGRFTLSRDNPKNTLYLQMNSLRAEDTAVYYCATSYYYGNALEYWGQGTTVTVSS VL: DVVLTQSPDSLAVSLGERATISCKSSQSLFNVGNQKNYLTWYQQKPGQTPTLLIYWASTRKSGVPDRFTGSGSGTDFTLTISSLQAEDVAVYYCQNVYSYPLTFGAGTKVEIK	% ADCC @ 6.67 nM, NCI-N87-CLDN18.2, FcR-TANK [2]: 12%; ADCC EC50, NCI-N87-CLDN18.2, FcR-TANK [2]: 0.34 nM; % specific cytotoxicity @ 6.67 nM, NUGC4-CLDN18.2, PBMC [3]: 26.4%; ADCC EC50, NUGC4-CLDN18.2, PBMC [3]: 6.4 nM
4.12	364D1A7-H4L1 (antibody, V domains shown, humanized IgG; constant regions not specified; also called 364D1A7-H41L) VH: DVQLVESGGGLVQPGGSLRLSCAASGFTFSSFGMHWVRQAPGKGLEWVAYISSGSGSIYYADTVKGRFTLSRDNPKNTLYLQMNSLRAEDTAVYYCATSYYYGNALEYWGQGTTVTVSS VL: DIVMTQSPDSLAVSLGERATINCKSSQSLFNVGNQKNYLTWYQQKPGQPPKLLIYWASTRKSGVPDRFSGSGSGTDFTLTISSLQAEDVAVYYCQNVYSYPLTFGGGTKVEIK	% ADCC @ 6.67 nM, NCI-N87-CLDN18.2, FcR-TANK [2]: 9.3%; ADCC EC50, NCI-N87-CLDN18.2, FcR-TANK [2]: 0.31 nM; % specific cytotoxicity @ 6.67 nM, NUGC4-CLDN18.2, PBMC [3]: 26.4%; ADCC EC50, NUGC4-CLDN18.2, PBMC [3]: 7.58 nM
3.85	364D1A7-H4L4 (antibody, V domains shown, humanized IgG; constant regions not specified) VH: DVQLVESGGGLVQPGGSLRLSCAASGFTFSSFGMHWVRQAPGKGLEWVAYISSGSGSIYYADTVKGRFTLSRDNPKNTLYLQMNSLRAEDTAVYYCATSYYYGNALEYWGQGTTVTVSS VL: DVVLTQSPDSLAVSLGERATISCKSSQSLFNVGNQKNYLTWYQQKPGQTPTLLIYWASTRKSGVPDRFSGSGSGTDFTLTISSLQAEDVAVYYCQNVYSYPLTFGGGTKVEIK	
4.56	364D1A7-H4L3 (antibody, V domains shown, humanized IgG; constant regions not specified) VH: DVQLVESGGGLVQPGGSLRLSCAASGFTFSSFGMHWVRQAPGKGLEWVAYISSGSGSIYYADTVKGRFTLSRDNPKNTLYLQMNSLRAEDTAVYYCATSYYYGNALEYWGQGTTVTVSS VL: DVVLTQSPDSLAVSLGERATINCKSSQSLFNVGNQKNYLTWYQQKPGQTPKLLIYWASTRKSGVPDRFSGSGSGTDFTLTISSLQAEDVAVYYCQNVYSYPLTFGGGTKVEIK	
4.51	364D1A7-H4L2 (antibody, V domains shown, humanized IgG; constant regions not specified) VH: DVQLVESGGGLVQPGGSLRLSCAASGFTFSSFGMHWVRQAPGKGLEWVAYISSGSGSIYYADTVKGRFTLSRDNPKNTLYLQMNSLRAEDTAVYYCATSYYYGNALEYWGQGTTVTVSS VL: DIVLTQSPDSLAVSLGERATINCKSSQSLFNVGNQKNYLTWYQQKPGQTPKLLIYWASTRKSGVPDRFSGSGSGTDFTLTISSLQAEDVAVYYCQNVYSYPLTFGGGTKVEIK	

Second part, the binder before the results:

Binder	EC50 [1] [nM]	also measured
364D1A7-H2L3 (antibody, V domains shown, humanized IgG; constant regions not specified) VH: EVQLVESGGGLVQPGGSLRLSCAASGFTFSSFGMHWVRQAPGKGLEWVAYISSGSGSIYYADTVKGRFTISRDNPKNSLYLQMNSLRAEDTAVYYCATSYYYGNALEYWGQGTTVTVSS VL: DVVLTQSPDSLAVSLGERATINCKSSQSLFNVGNQKNYLTWYQQKPGQTPKLLIYWASTRKSGVPDRFSGSGSGTDFTLTISSLQAEDVAVYYCQNVYSYPLTFGGGTKVEIK	4.4	
364D1A7-H3L5 (antibody, V domains shown, humanized IgG; constant regions not specified) VH: EVQLVESGGGLVQPGGSLRLSCAASGFTFSSFGMHWVRQAPGKGLEWVAYISSGSGSIYYADTVKGRFTLSRDNPKNSLYLQMNSLRAEDTAVYYCATSYYYGNALEYWGQGTTVTVSS VL: DVVLTQSPDSLAVSLGERATISCKSSQSLFNVGNQKNYLTWYQQKPGQTPTLLIYWASTRKSGVPDRFTGSGSGTDFTLTISSLQAEDVAVYYCQNVYSYPLTFGAGTKVEIK	4.53	
364D1A7-H2L5 (antibody, V domains shown, humanized IgG; constant regions not specified) VH: EVQLVESGGGLVQPGGSLRLSCAASGFTFSSFGMHWVRQAPGKGLEWVAYISSGSGSIYYADTVKGRFTISRDNPKNSLYLQMNSLRAEDTAVYYCATSYYYGNALEYWGQGTTVTVSS VL: DVVLTQSPDSLAVSLGERATISCKSSQSLFNVGNQKNYLTWYQQKPGQTPTLLIYWASTRKSGVPDRFTGSGSGTDFTLTISSLQAEDVAVYYCQNVYSYPLTFGAGTKVEIK	3.35	
364D1A7-H3L2 (antibody, V domains shown, humanized IgG; constant regions not specified) VH: EVQLVESGGGLVQPGGSLRLSCAASGFTFSSFGMHWVRQAPGKGLEWVAYISSGSGSIYYADTVKGRFTLSRDNPKNSLYLQMNSLRAEDTAVYYCATSYYYGNALEYWGQGTTVTVSS VL: DIVLTQSPDSLAVSLGERATINCKSSQSLFNVGNQKNYLTWYQQKPGQTPKLLIYWASTRKSGVPDRFSGSGSGTDFTLTISSLQAEDVAVYYCQNVYSYPLTFGGGTKVEIK	4.05	
364D1A7-H1L2 (antibody, V domains shown, humanized IgG; constant regions not specified) VH: EVQLVESGGGLVQPGGSLRLSCAASGFTFSSFGMHWVRQAPGKGLEWVSYISSGSGSIYYADTVKGRFTISRDNAKNSLYLQMNSLRAEDTAVYYCATSYYYGNALEYWGQGTTVTVSS VL: DIVLTQSPDSLAVSLGERATINCKSSQSLFNVGNQKNYLTWYQQKPGQTPKLLIYWASTRKSGVPDRFSGSGSGTDFTLTISSLQAEDVAVYYCQNVYSYPLTFGGGTKVEIK	6.9	
364D1A7-H2L1 (antibody, V domains shown, humanized IgG; constant regions not specified) VH: EVQLVESGGGLVQPGGSLRLSCAASGFTFSSFGMHWVRQAPGKGLEWVAYISSGSGSIYYADTVKGRFTISRDNPKNSLYLQMNSLRAEDTAVYYCATSYYYGNALEYWGQGTTVTVSS VL: DIVMTQSPDSLAVSLGERATINCKSSQSLFNVGNQKNYLTWYQQKPGQPPKLLIYWASTRKSGVPDRFSGSGSGTDFTLTISSLQAEDVAVYYCQNVYSYPLTFGGGTKVEIK	3.47	
364D1A7-H2L2 (antibody, V domains shown, humanized IgG; constant regions not specified) VH: EVQLVESGGGLVQPGGSLRLSCAASGFTFSSFGMHWVRQAPGKGLEWVAYISSGSGSIYYADTVKGRFTISRDNPKNSLYLQMNSLRAEDTAVYYCATSYYYGNALEYWGQGTTVTVSS VL: DIVLTQSPDSLAVSLGERATINCKSSQSLFNVGNQKNYLTWYQQKPGQTPKLLIYWASTRKSGVPDRFSGSGSGTDFTLTISSLQAEDVAVYYCQNVYSYPLTFGGGTKVEIK	6.14	% ADCC @ 6.67 nM, NCI-N87-CLDN18.2, FcR-TANK [2]: 9.4%; ADCC EC50, NCI-N87-CLDN18.2, FcR-TANK [2]: 0.22 nM; % specific cytotoxicity @ 6.67 nM, NUGC4-CLDN18.2, PBMC [3]: 26.6%; ADCC EC50, NUGC4-CLDN18.2, PBMC [3]: 9.69 nM
364D1A7-H3L3 (antibody, V domains shown, humanized IgG; constant regions not specified) VH: EVQLVESGGGLVQPGGSLRLSCAASGFTFSSFGMHWVRQAPGKGLEWVAYISSGSGSIYYADTVKGRFTLSRDNPKNSLYLQMNSLRAEDTAVYYCATSYYYGNALEYWGQGTTVTVSS VL: DVVLTQSPDSLAVSLGERATINCKSSQSLFNVGNQKNYLTWYQQKPGQTPKLLIYWASTRKSGVPDRFSGSGSGTDFTLTISSLQAEDVAVYYCQNVYSYPLTFGGGTKVEIK	3.54	
364D1A7-H2L4 (antibody, V domains shown, humanized IgG; constant regions not specified) VH: EVQLVESGGGLVQPGGSLRLSCAASGFTFSSFGMHWVRQAPGKGLEWVAYISSGSGSIYYADTVKGRFTISRDNPKNSLYLQMNSLRAEDTAVYYCATSYYYGNALEYWGQGTTVTVSS VL: DVVLTQSPDSLAVSLGERATISCKSSQSLFNVGNQKNYLTWYQQKPGQTPTLLIYWASTRKSGVPDRFSGSGSGTDFTLTISSLQAEDVAVYYCQNVYSYPLTFGGGTKVEIK	3.94	
364D1A7-H1L4 (antibody, V domains shown, humanized IgG; constant regions not specified) VH: EVQLVESGGGLVQPGGSLRLSCAASGFTFSSFGMHWVRQAPGKGLEWVSYISSGSGSIYYADTVKGRFTISRDNAKNSLYLQMNSLRAEDTAVYYCATSYYYGNALEYWGQGTTVTVSS VL: DVVLTQSPDSLAVSLGERATISCKSSQSLFNVGNQKNYLTWYQQKPGQTPTLLIYWASTRKSGVPDRFSGSGSGTDFTLTISSLQAEDVAVYYCQNVYSYPLTFGGGTKVEIK	4.03	
364D1A7-H1L3 (antibody, V domains shown, humanized IgG; constant regions not specified) VH: EVQLVESGGGLVQPGGSLRLSCAASGFTFSSFGMHWVRQAPGKGLEWVSYISSGSGSIYYADTVKGRFTISRDNAKNSLYLQMNSLRAEDTAVYYCATSYYYGNALEYWGQGTTVTVSS VL: DVVLTQSPDSLAVSLGERATINCKSSQSLFNVGNQKNYLTWYQQKPGQTPKLLIYWASTRKSGVPDRFSGSGSGTDFTLTISSLQAEDVAVYYCQNVYSYPLTFGGGTKVEIK	4.1	
364D1A7-H3L4 (antibody, V domains shown, humanized IgG; constant regions not specified) VH: EVQLVESGGGLVQPGGSLRLSCAASGFTFSSFGMHWVRQAPGKGLEWVAYISSGSGSIYYADTVKGRFTLSRDNPKNSLYLQMNSLRAEDTAVYYCATSYYYGNALEYWGQGTTVTVSS VL: DVVLTQSPDSLAVSLGERATISCKSSQSLFNVGNQKNYLTWYQQKPGQTPTLLIYWASTRKSGVPDRFSGSGSGTDFTLTISSLQAEDVAVYYCQNVYSYPLTFGGGTKVEIK	4.78	
364D1A7-H1L5 (antibody, V domains shown, humanized IgG; constant regions not specified) VH: EVQLVESGGGLVQPGGSLRLSCAASGFTFSSFGMHWVRQAPGKGLEWVSYISSGSGSIYYADTVKGRFTISRDNAKNSLYLQMNSLRAEDTAVYYCATSYYYGNALEYWGQGTTVTVSS VL: DVVLTQSPDSLAVSLGERATISCKSSQSLFNVGNQKNYLTWYQQKPGQTPTLLIYWASTRKSGVPDRFTGSGSGTDFTLTISSLQAEDVAVYYCQNVYSYPLTFGAGTKVEIK	3.96	% ADCC @ 6.67 nM, NCI-N87-CLDN18.2, FcR-TANK [2]: 9.1%; ADCC EC50, NCI-N87-CLDN18.2, FcR-TANK [2]: 0.26 nM; % specific cytotoxicity @ 6.67 nM, NUGC4-CLDN18.2, PBMC [3]: 27.5%; ADCC EC50, NUGC4-CLDN18.2, PBMC [3]: 8.17 nM
413H9F8-H1L2 (antibody, V domains shown, humanized IgG; constant regions not specified) VH: EVQLVESGGGLVQPGGSLRLSCAASGFTFSSFGMHWVRQAPGKGLEWVSYISSGSSPIYYVDKLKGRFTISRDNAKNSLYLQMNSLRAEDTAVYYCARAGYAVRNALDYWGQGTLVTVSS VL: DIVMTQSPDSLAVSLGERATINCKSSQSLLNVGNQKNYLAWYQQKPGQPPKLLIYGASTRESGVPDRFSGSGSGTDFTLTISSLQAEDVAVYFCQNDLFYPLTFGGGTKVEIK		EC50 [4]: 2.18 nM
